Our source for the stoichiometry N and Kd values is PMC8072984.

Test [1] concerns the target sapC-PUMA chimera (saposin C linked to the BH3 domain of PUMA). In words: NMR titration; [1H-15N]-SOFAST-HMQC at 298 K, 600 MHz; 15N-labelled chimera at 100 µM mixed with unlabeled Bcl-xL-ΔTM (stock 900 µM, pH 6.8) at chimera:Bcl-xL molar ratios 1:0, 1:0.5, 1:1, 1:2; 10% D2O; slow exchange, the upper limit of KD estimated from the chemical shift difference assuming diffusion-controlled kon.

The target of a further test is Bcl-xL (Homo sapiens) (UniProt Q07817). In words: isothermal titration calorimetry. The following applies: cited from earlier work. For orientation: Isothermal titration calorimetry measures the heat released or taken up as one component is titrated into another.

In general, stoichiometry N refers to a count of units in the complex or per binding partner. By Kd is commonly meant the constant that tells how readily two partners part at equilibrium.

PUMA BH3, sequence (Q9BXH1 130-156): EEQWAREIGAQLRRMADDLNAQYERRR
sapC-PUMA chimera (saposin C linked to the BH3 domain of PUMA), sequence (P07602 other isoform, or with tags, fused parts or gaps mutant): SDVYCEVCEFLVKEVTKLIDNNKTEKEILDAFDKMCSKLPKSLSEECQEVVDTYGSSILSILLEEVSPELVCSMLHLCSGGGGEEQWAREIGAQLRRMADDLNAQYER
Bcl-xL (Homo sapiens), sequence (Q07817 whole entry): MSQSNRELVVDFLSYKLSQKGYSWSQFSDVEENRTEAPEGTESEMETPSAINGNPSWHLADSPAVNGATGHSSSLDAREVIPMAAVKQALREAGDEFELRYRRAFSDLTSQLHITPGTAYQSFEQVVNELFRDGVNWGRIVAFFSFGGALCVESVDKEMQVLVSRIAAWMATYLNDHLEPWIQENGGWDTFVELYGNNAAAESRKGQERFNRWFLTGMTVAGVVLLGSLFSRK

In the case of “Human Bcl-xL-ΔTM (native amino acid sequence without the transmembrane domain) (domain or fragment)”, the stoichiometry N in test [1] is 1.
On to PUMA BH3 (from UniProt Q9BXH1), for which, in the test with Bcl-xL (Homo sapiens), the dissociation constant Kd is 3 nM.
